Laboratory results reported in publication PMC8421203 (Nucleic Acids Research, 2021).

Columns and labels:
[1] = biological target: PHF14 PZP domain, 278-487; assay: ITC; conditions: reference: unmodified H3(1-15) peptide; sites T3
[2] = biological target: Zebrafish PHF14PZP (278–487) (zebrafish); assay: ITC
[3] = biological target: T1, Zebrafish PHF14PZP (278–487) (zebrafish, UniProt A0A286Y9D1 278-487); assay: crystal structure
T1 sequence: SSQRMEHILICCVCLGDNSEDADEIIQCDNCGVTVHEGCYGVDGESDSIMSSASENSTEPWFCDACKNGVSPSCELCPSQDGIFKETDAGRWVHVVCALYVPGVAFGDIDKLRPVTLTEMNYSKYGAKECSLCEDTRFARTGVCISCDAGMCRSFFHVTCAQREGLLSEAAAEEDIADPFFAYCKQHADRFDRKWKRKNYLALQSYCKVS

PHF14PZP E301A = biological target: T2, PHF14PZP E301A (zebrafish, UniProt A0A286Y9D1 278-487, E301A); assay: ITC
T2 sequence: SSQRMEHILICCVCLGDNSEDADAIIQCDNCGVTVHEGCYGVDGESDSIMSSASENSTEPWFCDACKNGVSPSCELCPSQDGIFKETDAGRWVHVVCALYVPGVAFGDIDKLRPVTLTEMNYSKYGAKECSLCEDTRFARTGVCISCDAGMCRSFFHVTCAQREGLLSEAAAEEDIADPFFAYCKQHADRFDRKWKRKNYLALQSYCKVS

Thermal shift assay = assay type: physicochemical; conditions: 2 mg/ml protein, 5× Sypro Orange, 100 mM NaCl, 20 mM HEPES-Na pH 7.5, 25°C to 90°C at 0.5°C per minute

histone H3 1-15 (from UniProt P68431) H3(1-15) T3ph peptide
KD [1]: lost; reference 12.7

unmodified histone H3(1–15) peptide (from UniProt P68431 2-16)
Kd [2]: 12.7 µM

ARTKQTARKSTGG [histone H3(1–13), as joined to PHF14PZP in the fusion protein]
binding result [3]: binds

ARTKQTARKSTGGKA [unmodified histone H3(1–15) peptide]
fold decrease of affinity against wild-type PHF14PZP (PHF14PZP E301A): ~28 fold

B1: H3(1–13)-PHF14PZP: chimeric protein: H3(1–13) fused to the N-terminus of PHF14PZP (aa 278–487) through an 'SGSGS' linker (protein)
chain: ARTKQTARKSTGGSGSGSSSQRMEHILICCVCLGDNSEDADEIIQCDNCGVTVHEGCYGVDGESDSIMSSASENSTEPWFCDACKNGVSPSCELCPSQDGIFKETDAGRWVHVVCALYVPGVAFGDIDKLRPVTLTEMNYSKYGAKECSLCEDTRFARTGVCISCDAGMCRSFFHVTCAQREGLLSEAAAEEDIADPFFAYCKQHADRFDRKWKRKNYLALQSYCKVS
modifications: left off: 10xHis-SUMO, N-terminal, cleaved
positive Tm shift versus free state PHF14PZP (Thermal shift assay): 3.2 °C
